Test results as given in paper doi:10.1101/2022.01.14.476392 (bioRxiv, 2022).

Target: the molecule itself
Assay: BLI

B1: diol-dehydratase PduCDE (complex, Salmonella enterica)
chain 1: MRSKRFEALAKRPVNQDGFVKEWIEEGFIAMESPNDPKPSIKIVNGAVTELDGKPVSEFDLIDHFIARYGINLNRAEEVMAMDSVKLANMLCDPNVKRSEIVPLTTAMTPAKIVEVVSHMNVVEMMMAMQKMRARRTPSQQAHVTNVKDNPVQIAADAAEGAWRGFDEQETTVAVARYAPFNAIALLVGSQVGRPGVLTQCSLEEATELKLGMLGHTCYAETISVYGTEPVFTDGDDTPWSKGFLASSYASRGLKMRFTSGSGSEVQMGYAEGKSMLYLEARCIYITKAAGVQGLQNGSVSCIGVPSAVPSGIRAVLAENLICSSLDLECASSNDQTFTHSDMRRTARLLMQFLPGTDFISSGYSAVPNYDNMFAGSNEDAEDFDDYNVIQRDLKVDGGLRPVREEDVIAIRNKAARALQAVFAGMGLPPITDEEVEAATYAHGSKDMPERNIVEDIKFAQEIINKNRNGLEVVKALAQGGFTDVAQDMLNIQKAKLTGDYLHTSAIIVGDGQVLSAVNDVNDYAGPATGYRLQGERWEEIKNIPGALDPNEID
chain 2: MEINEKLLRQIIEDVLRDMKGSDKPVSFNAPAASTAPQTAAPAGDGFLTEVGEARQGTQQDEVIIAVGPAFGLAQTVNIVGLPHKSILREVIAGIEEEGIKARVIRCFKSSDVAFVAVEGNRLSGSGISIGIQSKGTTVIHQQGLPPLSNLELFPQAPLLTLETYRQIGKNAARYAKRESPQPVPTLNDQMARPKYQAKSAILHIKETKYVVTGKNPQELRVAL
chain 3: MNTDAIESMVRDVLSRMNSLQGDAPAAAPAAGGTSRSAKVSDYPLANKHPEWVKTATNKTLDDFTLENVLSNKVTAQDMRITPETLRLQASIAKDAGRDRLAMNFERAAELTAVPDDRILEIYNALRPYRSTKEELLAIADDLENRYQAKICAAFVREAAGLYVERKKLKGDD
Kd: 3.5 µM
